Test results published in publication PMC5095700.

System: N[C@@H]1[C@@H](O)[C@H](O)[C@@H](CO)O[C@H]1O
Experiment: steady-state kinetics of purified variant
Format: biochemical, Clostridium acetobutylicum
Conditions: acetyl CoA

Substance	Km [mM]	kcat [s⁻¹]
Glucosamine/glucosaminide N-acetyltransferase (GlmA) (Clostridium acetobutylicum ATCC 824; D287N)	11.8 ± 0.5	1.05 ± 0.03
Glucosamine/glucosaminide N-acetyltransferase (GlmA) (Clostridium acetobutylicum ATCC 824; Y297F)	7.1 ± 0.5	1.3 ± 0.06
